According to patent US8420776B2, “Ube2G2 binding domain in the ubiquitin ligase gp78 and methods of use thereof” (The United States of America, as Represented by the …, priority 2004, dated 2013):

B1: gp78595: gp78 truncated after amino acid 595 of SEQ ID NO:2 (protein, listed as Homo sapiens)
chain: MPLLFLERFPWPSLRTYTGLSGLALLGTIISAYRALSQPEAGPGEPDQLTASLQPEPPAPARPSAGGPRARDVAQYLLSDSLFVWVLVNTACCVLMLVAKLIQCIVFGPLRVSERQHLKDKFWNFIFYKFIFIFGVLNVQTVEEVVMWCLWFAGLVFLHLMVQLCKDRFEYLSFSPTTPMSSHGRVLSLLVAMLLSCCGLAAVCSITGYTHGMHTLAFMAAESLLVTVRTAHVILRYVIHLWDLNHEGTWEGKGTYVYYTDFVMELTLLSLDLMHHIHMLLFGNIWLSMASLVIFMQLRYLFHEVQRRIRRHKNYLRVVGNMEARFAVATPEELAVNNDDCAICWDSMQAARKLPCGHLFHNSCLRSWLEQDTSCPTCRMSLNIADNNRVREEHQGENLDENLVPVAAAEGRPRLNQHNHFFHFDGSRIASWLPSFSVEVMHTTNILGITQASNSQLNAMAHQIQEMFPQVPYHLVLQDLQLTRSVEITTDNILEGRIQVPFPTQRSDSIRPALNSPVERPSSDQEEGETSAQTERVPLDLSPRLEETLDFGEVEVEPSEVEDFEARGSRFSKSADERQRMLVQRKDELLQQARK
B2: gp78611: gp78 truncated after residue 611 of SEQ ID NO:2 (protein, listed as Homo sapiens)
chain: MPLLFLERFPWPSLRTYTGLSGLALLGTIISAYRALSQPEAGPGEPDQLTASLQPEPPAPARPSAGGPRARDVAQYLLSDSLFVWVLVNTACCVLMLVAKLIQCIVFGPLRVSERQHLKDKFWNFIFYKFIFIFGVLNVQTVEEVVMWCLWFAGLVFLHLMVQLCKDRFEYLSFSPTTPMSSHGRVLSLLVAMLLSCCGLAAVCSITGYTHGMHTLAFMAAESLLVTVRTAHVILRYVIHLWDLNHEGTWEGKGTYVYYTDFVMELTLLSLDLMHHIHMLLFGNIWLSMASLVIFMQLRYLFHEVQRRIRRHKNYLRVVGNMEARFAVATPEELAVNNDDCAICWDSMQAARKLPCGHLFHNSCLRSWLEQDTSCPTCRMSLNIADNNRVREEHQGENLDENLVPVAAAEGRPRLNQHNHFFHFDGSRIASWLPSFSVEVMHTTNILGITQASNSQLNAMAHQIQEMFPQVPYHLVLQDLQLTRSVEITTDNILEGRIQVPFPTQRSDSIRPALNSPVERPSSDQEEGETSAQTERVPLDLSPRLEETLDFGEVEVEPSEVEDFEARGSRFSKSADERQRMLVQRKDELLQQARKRFLNKSSEDDAASESF
B3: wild type gp78: full-length wild type human gp78 ubiquitin ligase expressed in cells (protein, listed as Homo sapiens)
chain: MPLLFLERFPWPSLRTYTGLSGLALLGTIISAYRALSQPEAGPGEPDQLTASLQPEPPAPARPSAGGPRARDVAQYLLSDSLFVWVLVNTACCVLMLVAKLIQCIVFGPLRVSERQHLKDKFWNFIFYKFIFIFGVLNVQTVEEVVMWCLWFAGLVFLHLMVQLCKDRFEYLSFSPTTPMSSHGRVLSLLVAMLLSCCGLAAVCSITGYTHGMHTLAFMAAESLLVTVRTAHVILRYVIHLWDLNHEGTWEGKGTYVYYTDFVMELTLLSLDLMHHIHMLLFGNIWLSMASLVIFMQLRYLFHEVQRRIRRHKNYLRVVGNMEARFAVATPEELAVNNDDCAICWDSMQAARKLPCGHLFHNSCLRSWLEQDTSCPTCRMSLNIADNNRVREEHQGENLDENLVPVAAAEGRPRLNQHNHFFHFDGSRIASWLPSFSVEVMHTTNILGITQASNSQLNAMAHQIQEMFPQVPYHLVLQDLQLTRSVEITTDNILEGRIQVPFPTQRSDSIRPALNSPVERPSSDQEEGETSAQTERVPLDLSPRLEETLDFGEVEVEPSEVEDFEARGSRFSKSADERQRMLVQRKDELLQQARKRFLNKSSEDDAASESFLPLEGASSDPVTLRRRMLAAAAERRLQKQQTS

Legend:
Format in all cases: cell-based
Myc-Ube2G2 = biological target: T1, Myc-Ube2G2 (Mus musculus, UniProt P60605); assay: Co-immunoprecipitation with co-expressed Myc-Ube2G2 in cells; conditions: anti-Myc IP, anti-gp78 IB; MG132 8 hr
T1 construct: expressed in transfected cells; host or cells: HEK 293T
T1 sequence (P60605 1-165): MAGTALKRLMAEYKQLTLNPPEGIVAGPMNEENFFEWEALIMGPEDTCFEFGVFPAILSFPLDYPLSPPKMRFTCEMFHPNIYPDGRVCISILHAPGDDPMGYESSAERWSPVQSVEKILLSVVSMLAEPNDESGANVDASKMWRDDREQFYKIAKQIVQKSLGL
Procedure: (§1) Transfections of HT1080, NIH 3T3 and HEK 293T cells were carried out ˜24 hr after plating using Polyfect (Qiagen, Valencia, Calif.) and cells harvested after ˜48 hr. J558 cells were transfected by electroporation using Bio-rad GENE pulser II at settings of 250 v, 950uF. Vector without insert was used to equalize total plasmid. In most experiments 0.15 μg of pEGFP-C1 served as an internal control. For experiments not involving immunoprecipitation, 6×10^5 cells were plated in 6 well plates and cell lysis was with Mammalian Protein Extraction Reagent (Pierce). For immunoprecipitation, 2.4×10^6 cells were seeded in 100 mm dishes and cells were lysed in RIPA buffer (1×PBS, 1% Nonidet P40. 0.5% sodium deoxycholate, 0.1% SDS). Lysis buffers were supplemented with Protease Inhibitor Cocktail (Sigma) and 10 mM iodoacetamide. Supernatants were analyzed after a 10,000×g centrifugation using standard techniques for immunoprecipitation, SDS-PAGE, immunoblotting and ECL. Treatment of cells with MG132 (Sigma) was at 50 μM for eight hr. Cycloheximnide was used at 50 μg/ml. All cells were collected at the end of the six hr chase.
FIG. 5 depicts the results of immunoprecipitation of Ube2G2 (MmUbc7) from HEK 293T cells co-transfected with a plasmid encoding myc-tagged MmUbc7/Ube2G2 together with s plasmid encoding various forms of gp78. HEK 293T cells were transfected with a plasmid encoding myc-tagged MmUbc7/Ube2G2 together with plasmids encoding various forms of gp78. After 48 hours, cells were harvested and co-immuntoprecipitated with an anti-Myc tage. Anti-gp78 was used for detection. “R2M” indicates a mutation of two crucial residues in the RING finger. “T” indicates C terminal truncations at the indicated amino acids. ΔB is the mutation indicated above in FIG. 4 in the context of the full length gp78 and “Cue12M” indicates mutations in the Cue domain of gp78.
To confirm the significance of the Ube2G2 binding site in cells, a variety of mutations and truncations of full-length gp78 were tested for binding of co-expressed Myc-Ube2G2 (FIG. 19A). Cells were treated with the proteasome inhibitor MG132 in an attempt to equalize levels of the various forms of gp78.

ERAD substrate CD3-δ [1] = assay: Cycloheximide chase of CD3-δ in co-transfected cells; conditions: co-transfection with HA-CD3-δ
Procedure: as §1
(§2) To evaluate protein turnover in more detail, cycloheximide chase experiments were performed (FIGS. 20C and 20D). […] In agreement with FIG. 20A, CD3-δ degradation was accelerated with wild type gp78 (FIGS. 20C and 20D middle panels; effects of full-length forms of gp78 on CD3-δ from FIGS. 20C and 20D are quantified in FIG. 20E).

gp78 [2] = assay: Cycloheximide chase of gp78 in transfected cells; conditions: compared to wild type gp78
Procedure: as §1, §2

ERAD substrate CD3-δ [3] = assay: CD3-δ level in co-transfected cells by immunoblotting; conditions: co-transfection with CD3-δ; immunoblot
Procedure: as §1
FIG. 7 depicts the stabilization of CD3-δ protein in cells transfected with the G2BD, but not with the G2BD with amino acids 579-584 (of SEQ ID NO:2) mutated. HEK 293T cells were transfected with the ERAD substrate CD3-δ along with the indicated GFP fusions of gp78. The left and right sides are two separate experiments.
To test this, GFP fusions of either a minimal E2 binding domain (GFP-574-611) or a more extended region that includes the C-terminus of gp78 (GFP-574-643) were evaluated (FIG. 21A). […] To assess this further, the C-terminal region of gp78 was fused to the eight amino acid Flag tag. […] Mdm2 is a RING finger E3 for both itself and p53 that is neither an ERAD substrate nor known to utilize Ube2G2 as an E2. […] To establish with certainty that the effect observed with expression of the Ube2G2 binding site is a consequence of binding endogenous E2, and not due to other unanticipated effects, cells were co-transfected with increasing amounts of Ube2G2 (FIG. 21C, lanes 3 and 4). […] These findings clearly establish that the isolated E2 binding site has the potential to markedly alter ERAD of CD3-δ. To ensure the effect observed was not peculiar to one substrate, TCR-α was evaluated (FIG. 21D).

gp78 [4] = assay: gp78 ubiquitylation in transfected cells (IP anti-gp78, IB anti-ubiquitin); conditions: 50 μM MG132 eight hours
Procedure: FIGS. 20A-20E depict the requirement of multiple domains of gp78 to target itself and a heterologous ERAD substrate. (FIG. 20A) Cells were co-transfected with the indicated forms of full length gp78 together with CD3-δ and lysates analyzed by IB. (B) Cells were transfected with wild type and mutant gp78 plasmids as indicated. Samples were treated with 50 μM MG132 for eight hours, lysates IP'ed with anti-gp78 followed by […] with either antiubiquitin (upper) or anti-gp78 (lower). Arrow in upper panel indicates migration of unmodified gp78. (FIGS. 20C and 20D) Cells were co-transfected with HA-CD3-δ and wild type (WT) or mutant forms of gp78. Cells were treated with cycloheximide (CHX) as indicated. (FIG. 20E) Graphic representation of CD3-δ levels from FIGS. 20C and 20D (fall length gp78 transfections only), Cue-m1, 2 is the average of data shown in FIGS. 20C and 20D.
as §1, with “Lysis buffers were supplemented with Protease Inhibitor Cocktail (Sigma) and 10 mM iodoacetamide.” left out, “Treatment of cells with MG132 (Sigma) was at 50 μM for eight hr. Cycloheximnide was used at 50 μg/ml. All cells were collected at the end of the six hr chase.” left out
gp78 is degraded in a proteasome-dependent manner, and deletion of the entire cytoplasmic domain results in its stabilization. […] To determine the significance of the RING finger, Cue domain and Ube2G2 binding site on gp78 stability, mutations of each were evaluated within full-length gp78. […]

| Molecule | E2 association of full-length gp78 forms with co-expressed Myc-Ube2G2 (Myc-Ube2G2) | effect on CD3-δ degradation (ERAD substrate CD3-δ [1]) | gp78 stability (gp78 [2]) | effect on CD3-δ level (stabilization) (ERAD substrate CD3-δ [3]) | gp78 ubiquitylation (ubiquitin immunoreactivity) (gp78 [4]) |
| --- | --- | --- | --- | --- | --- |
| B1 | loss of E2 binding | minimal stabilization of CD3-δ | stabilized gp78 |  |  |
| B2 | retained E2 binding | enhanced loss of CD3-δ | did not stabilize gp78 |  |  |
| B3 |  | accelerated |  | decreased CD3-δ levels | ubiquitylation was observed |
